Values of other authors in patent publication US20050107320A1, “Methods and compositions for use in interventional pharmacogenomics” (priority 2003, published 2005).

Assays:
[1] = administered systemically

Q: For “EPO: glycoprotein hormone involved in the growth and maturation of erythroid progenitor cells into erythrocytes”, which clinical tolerability is on record?
A: well tolerated clinically

Q: And the “crossing of the blood-brain barrier” value [1]?
A: can cross the blood-brain barrier
